Target: human VEGFC (Vascular endothelial growth factor C) (human) (UniProt P49767)
Test: cell-based or functional assay

decrease in proliferation of cancer cells (MTT assay, A498, 786-O, MDA-MB231, 48 h): 40%
B1: 1E9 antibodies (monoclonal anti-VEGFC antibodies of the 1E9 hybridoma) (antibody, V domains shown)
VH: QAQLRQPGAELVKPGASVKLSCKASGYTFISYWMHWVKQRPGQGLEWIGEINPSNGRTNYNEKFKSKATLTVDRSSSTAYMQLSSLTSEDSAVYYCASTSLFYYAMNYWGQGTSVTVSS
VL: DVVMTQTPLSLTVSLGDQASISCRSSQSLVHSNGNTYLHWYLQKPGQSPKLLIYKVFNRLSGVPDRFSGSGSGTDFTLKISRVEAEDLGVYFCSQNTHVPWTFGGGTKLEIK

Source: US20230192833A1
